Data on 12 variants can be found in PMC3418248 (2012).

To fix the notation:
B1: SepF [B. subtilis] / Halo-ZC (HaloTag fused to the final 69 amino acids of B. subtilis FtsZ) [B. subtilis] (parent complex)
chain 1: MSMKNKLKNFFSMEDEEYEYEYIETERESHEEHEQKEKPAYNGNKPAGKQNVVSLQSVQKSSKVVLSEPRVYAEAQEIADHLKNRRAVVVNLQRIQHDQAKRIVDFLSGTVYAIGGDIQRIGSDIFLCTPDNVDVSGTISELISEDEHQRW
chain 2: GFIEQEKDVTKPQRPSLNQSIKTHNQSVPKREPKREEPQQQNTVSRHTSQPADDTLDIPTFLRNRNKRG

The test covers variants of B1. The experiment in a line: pull-down (HaloTag bait), densitometric scanning of Coomassie-stained gels; read off a plot.
As for chain 2 K67A, the screen value was about 0.51.

On to chain 2 G69A, for which the screen value was about 0.69. For chain 2 D57A the value was about 0.53; for chain 2 N66A, about 0.74; for chain 2 R65A, about 0.42.

Turning to chain 2 F61A, the screen value is about 0.03.

With chain 2 P59A, the screen value was about 0.04. For chain 2 D54A the value was about 0.9.

Turning to chain 2 T60A, the screen value was about 0.66.

chain 2 I58A: the screen value is about 0.35. For chain 2 R68A the value was about 0.46; for chain 2 T55A, about 0.83.
